Source: article PMC4112721 (Plant Biotechnology Journal, 2013)

B1: VRC01 from transiently transformed Nicotiana benthamiana plants (antibody, V domains shown)
VH: QVQLVQSGGQMKKPGESMRISCRASGYEFIDCTLNWIRLAPGKRPEWMGWLKPRGGAVNYARPLQGRVTMTRDVYSDTAFLELRSLTVDDTAVYFCTRGKNCDYNWDFEHWGRGTPVIVSS
VL: EIVLTQSPGTLSLSPGETAIISCRTSQYGSLAWYQQRPGQAPRLVIYSGSTRAAGIPDRFSGSRWGPDYNLTISNLESGDFGVYYCQQYEFFGQGTKVQVD
notes: IgG1 kappa; plant-codon-optimized genes, both chains on one pTRAk.2 vector; also called VRC01 transient; transient plant-derived VRC01
B2: VRC01 from stably transformed (transgenic) Nicotiana tabacum plants (antibody, V domains shown)
VH: B1 VH
VL: B1 VL
notes: as the heavy chain of m1; as the light chain of m1; IgG1 kappa; source: N. tabacum cv
B3: VRC01 from HEK cells (antibody, V domains shown)
VH: B1 VH
VL: B1 VL
notes: as the heavy chain of m1; as the light chain of m1; IgG1 kappa; also called VRC01 HEK; HEK-cells-derived VRC01; source: HEK cells, purified

molecular target: T1, HIV-1 envelope glycoprotein gp120 IIIB (HIV-1 group M subtype B, isolate IIIB …, UniProt P03375); assay: SPR; Protein A amine-coupled on a CM5 chip, VRC01 captured to about 100 RU, gp120 IIIB injected at 20 ug/mL; BIAcore X-100, 25 °C, HBS-EP+ (10 mM HEPES pH 7.4, 150 mM NaCl, 3 mM EDTA, 0.05% surfactant P-20); 1:1 Langmuir fit; triplicate; settings: both partners purified
T1 construct: gp120 surface glycoprotein, cut product of the HIV-1 Env precursor, isolate IIIB; also called recombinant gp120 III; HIV gp120 IIIB; source: purified recombinant; NIH ARRRP

In order of falling Kd:
1. B1  1.68 nM
2. B2  1.39 nM
3. B3  0.66 nM
